Laboratory results from patent US20260092093A1 (TJ BIOPHARMA SHANGHAI, published 2026).

T1: hIL-18 receptor (hIL-18Rα and hIL-18Rβ) (human, UniProt Q13478 19-541; O95256 20-599)
T1 sequence (looked up) 1: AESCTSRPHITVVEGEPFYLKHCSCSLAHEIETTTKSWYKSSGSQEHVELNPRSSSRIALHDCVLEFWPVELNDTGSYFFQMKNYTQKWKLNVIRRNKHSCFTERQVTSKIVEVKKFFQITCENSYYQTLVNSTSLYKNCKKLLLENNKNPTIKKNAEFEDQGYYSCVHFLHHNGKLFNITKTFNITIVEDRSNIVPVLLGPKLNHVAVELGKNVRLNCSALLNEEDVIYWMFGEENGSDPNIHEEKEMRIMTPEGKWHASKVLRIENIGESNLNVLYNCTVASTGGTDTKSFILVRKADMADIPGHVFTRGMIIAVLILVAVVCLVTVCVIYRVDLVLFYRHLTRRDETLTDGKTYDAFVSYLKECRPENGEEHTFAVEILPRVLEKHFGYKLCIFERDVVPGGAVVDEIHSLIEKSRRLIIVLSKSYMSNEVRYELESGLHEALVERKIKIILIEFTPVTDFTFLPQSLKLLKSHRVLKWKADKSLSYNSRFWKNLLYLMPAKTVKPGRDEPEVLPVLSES
T1 sequence (looked up) 2: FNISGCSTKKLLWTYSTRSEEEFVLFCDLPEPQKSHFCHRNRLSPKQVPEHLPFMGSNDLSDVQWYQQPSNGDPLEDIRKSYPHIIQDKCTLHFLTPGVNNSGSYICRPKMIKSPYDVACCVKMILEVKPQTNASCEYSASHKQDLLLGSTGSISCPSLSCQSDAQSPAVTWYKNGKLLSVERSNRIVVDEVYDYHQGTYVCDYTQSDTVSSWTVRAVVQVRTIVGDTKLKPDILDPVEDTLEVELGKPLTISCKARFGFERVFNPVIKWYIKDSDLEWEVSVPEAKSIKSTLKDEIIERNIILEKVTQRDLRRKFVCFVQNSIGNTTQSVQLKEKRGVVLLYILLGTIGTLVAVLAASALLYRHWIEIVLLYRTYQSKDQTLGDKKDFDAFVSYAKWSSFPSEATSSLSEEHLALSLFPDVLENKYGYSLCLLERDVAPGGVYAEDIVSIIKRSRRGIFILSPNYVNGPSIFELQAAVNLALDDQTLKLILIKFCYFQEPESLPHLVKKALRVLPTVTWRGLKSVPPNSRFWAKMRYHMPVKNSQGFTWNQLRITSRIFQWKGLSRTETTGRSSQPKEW

T2: hIL-18BP-hFc (human, UniProt O95998 31-194, limits assumed)
T2 sequence (looked up): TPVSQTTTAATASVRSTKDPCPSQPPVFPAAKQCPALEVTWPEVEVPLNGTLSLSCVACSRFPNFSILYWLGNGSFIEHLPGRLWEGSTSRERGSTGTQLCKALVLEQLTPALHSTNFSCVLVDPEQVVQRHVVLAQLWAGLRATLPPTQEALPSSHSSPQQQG


How the values were obtained:
Experiment in all cases: cell-based or functional assay
[1] = target: T1, hIL-18 receptor (hIL-18Rα and hIL-18Rβ)
[2] = target: T2, hIL-18BP-hFc
[3] = target: T1, hIL-18 receptor (hIL-18Rα and hIL-18Rβ); remark: listed apart in the source
[4] = target: T2, hIL-18BP-hFc; remark: listed apart in the source

| Binder | EC50 (nM), hIL-18 reporter assay [1] | EC50 (nM) in the Presence of 1 µg/mL hIL-18BP-hFc, hIL-18 reporter assay [2] | EC50 Fold Change (+BP/-BP), hIL-18 reporter assay [2] | EC50 (nM), PBMC assay (hIFNγ release) [3] | EC50 (nM) in the Presence of 1 µg/mL hIL-18BP-hFc, PBMC assay (hIFNγ release) [4] | EC50 Fold Change (+BP/-BP), PBMC assay (hIFNγ release) [4] |
| --- | --- | --- | --- | --- | --- | --- |
| IL-18 variant polypeptide M29 (ligand) YFPKLMSKLSVIRNLNDQVLFIDQGNRPLFEDMTDSDCRDNAPRTIFIISMYKFSDRRGMAVTISVKCEKISTLSCENKIISFKEMNPPDPIKDTKSDIIFFQRSVPGHDNKMQFESSSYEGYFLACEKERDLFKLILKKEDELGDRSIMFTVQNED | 4.8 nM | 1.9 nM | 0.4 fold | 0.14 nM | 0.096 nM | 0.69 fold |
| IL-18 variant polypeptide WM10 (ligand) YFPKLKSKLSVIRNLNDQVLFIDQGNRPLFEDMTDSDCRDNAPRTIFIISMYKDSQPRGMAVTISVKCEKISTLSCENKIISFKEMNPPDSIKDTKSDIIFFQRSVPGHDNKMQFESSSYEGYFLACEKERDLFKLILKKEDELGDRSIMFTVQNED | 14.7 nM | 15.6 nM | 1.06 fold | 0.53 nM | 0.44 nM | 0.83 fold |
| IL-18 variant polypeptide M35 (ligand) YFPKLRSKLSVIRNLNDQVLFIDQGNRPLFEDMTDSDCRDNAPRTIFIISMYKGSGARGMAVTISVKCEKISTLSCENKIISFKEMNPPDGIKDTKSDIIFFQRSVPGHDNKMQFESSSYEGYFLACEKERDLFKLILKKEDELGDRSIMFTVQNED | 0.62 nM | 0.51 nM | 0.82 fold | 0.085 nM | 0.14 nM | 1.65 fold |
| IL-18 variant polypeptide WM6 (ligand) YFDKLKSKLSVIRNLNDQVLFIDQGNRPLFEDMTDSDCRDNAPRTIFIISMYKDSQPRGMAVTISVKCEKISTLSCENKIISFKEMNPPDSIKDTKSDIIFFQRSVPGHDNKMQFESSSYEGYFLACEKERDLFKLILKKEDELGDRSIMFTVQNED | 0.06 nM | 0.74 nM | 12.3 fold | – | ~0.04 nM | – |
| IL-18 variant polypeptide M33 (ligand) YFEKLHSKLSVIRNLNDQVLFIDQGNRPLFEDMTDSDCRDNAPRTIFIISMYKRSTHRGMAVTISVKCEKISTLSCENKIISFKEMNPPDNIKDTKSDIIFFQRSVPGHDNKMQFESSSYEGYFLACEKERDLFKLILKKEDELGDRSIMFTVQNED | 18.4 nM | 10.7 nM | 0.58 fold | 0.51 nM | 0.35 nM | 0.69 fold |
| IL-18 variant polypeptide MM5 (ligand) YFGKLGSKLSVIRNLNDQVLFIDQGNRPLFEDMTDSDCRDNAPRTIFIISMYKLSTERGMAVTISVKCEKISTLSCENKIISFKEMNPPDGIKDTKSDIIFFQSSVPGHDNKMQFESSSYEGYFLACEKERDLFKLILKKEDELGDRSIMFTVQNED | 0.028 nM | 0.08 nM | 2.86 fold | 0.035 nM | 0.045 nM | 1.29 fold |
| IL-18 variant polypeptide M25 (ligand) YFPKLRSKLSVIRNLNDQVLFIDQGNRPLFEDMTDSDCRDNAPRTIFIISMYKLSTTRGMAVTISVKCEKISTLSCENKIISFKEMNPPDRIKDTKSDIIFFQRSVPGHDNKMQFESSSYEGYFLACEKERDLFKLILKKEDELGDRSIMFTVQNED | 0.58 nM | 1.15 nM | 1.98 fold | – | – | – |
| IL-18 variant polypeptide WM8 (ligand) YFPKLRSKLSVIRNLNDQVLFIDQGNRPLFEDMTDSDCRDNAPRTIFIISMYKDSQPRGMAVTISVKCEKISTLSCENKIISFKEMNPPDSIKDTKSDIIFFQRSVPGHDNKMQFESSSYEGYFLACEKERDLFKLILKKEDELGDRSIMFTVQNED | 7 nM | 5.2 nM | 0.74 fold | 0.68 nM | 1.02 nM | 1.5 fold |
| IL-18 variant polypeptide M32 (ligand) YFPKLGSKLSVIRNLNDQVLFIDQGNRPLFEDMTDSDCRDNAPRTIFIISMYKSSSRRGMAVTISVKCEKISTLSCENKIISFKEMNPPDNIKDTKSDIIFFQRSVPGHDNKMQFESSSYEGYFLACEKERDLFKLILKKEDELGDRSIMFTVQNED | 5.9 nM | 4.1 nM | 0.69 fold | 0.13 nM | 0.1 nM | 0.77 fold |
| IL-18 variant polypeptide M23 (ligand) YFPKLRSKLSVIRNLNDQVLFIDQGNRPLFEDMTDSDCRDNAPRTIFIISMYKYSTRRGMAVTISVKCEKISTLSCENKIISFKEMNPPDNIKDTKSDIIFFQRSVPGHDNKMQFESSSYEGYFLACEKERDLFKLILKKEDELGDRSIMFTVQNED | 0.8 nM | 1.4 nM | 1.75 fold | – | – | – |
| IL-18 variant polypeptide M26 (ligand) YFPKLRSKLSVIRNLNDQVLFIDQGNRPLFEDMTDSDCRDNAPRTIFIISMYKHSDKRGMAVTISVKCEKISTLSCENKIISFKEMNPPDVIKDTKSDIIFFQYSVPGHDNKMQFESSSYEGYFLACEKERDLFKLILKKEDELGDRSIMFTVQNED | 0.068 nM | 0.094 nM | 1.38 fold | – | – | – |
| IL-18 variant polypeptide M36 (ligand) YFPKLSSKLSVIRNLNDQVLFIDQGNRPLFEDMTDSDCRDNAPRTIFIISMYKASDQRGMAVTISVKCEKISTLSCENKIISFKEMNPPDGIKDTKSDIIFFQRSVPGHDNKMQFESSSYEGYFLACEKERDLFKLILKKEDELGDRSIMFTVQNED | 3.9 nM | 2.5 nM | 0.64 fold | 1.1 nM | 0.8 nM | 0.73 fold |
